Assay results: the DeepSol protein solubility set

Experiment: soluble on expression in E. coli; label from the status in PepcDB or PDB records

Q: Which “soluble on expression in E. coli” value does the source give for “MGSDKIHHHHHHMELVIRDIRKRFQETEVLRGASYRFYSGKITGVLGRNGAGKTTLFNILYGDLAADNGTICLLKDNHEYPLTDKDIGIVYSENYLPEFLTGYEFVKFYMDLHPSDDLMTIDDYLDFMEIGQTERHRIIKGYSDGMKSKLSLICLMISKPKVILLDEPLTAVDVVSSIAIKRLLLELSEDHIIILSTHIMALAEDLCDIVAVLDKGKLQTLDIDRKHEQFEERLLQVLKGDEYDK” here?
A: not soluble

Q: With “SQKPCKENEGKPKCSVPKREEKRPYGEFERQQTEGNFRQRLLQSLEEFKEDIDYRHFKDEEMTREGDEMERCLEEIRGLRKKFRALHSNHRHSRDRPYPI” as the sequence, how does the “soluble on expression in E. coli” value read?
A: soluble

Q: For “MGHHHHHHSHMATSATSPHAPGFPAEGRCGYYVEKKKRFCRMVVAAGKRFCGEHAGAAEEEDARKRILCPLDPKHTVYEDQLAKHLKKCNSREKPKPDFYIQDINAGLRDETEIPEQLVPISSLSEEQLEKLIKKLRKASEGLNSTLKDHIMSHPALHDALNDPKNGDSATKHLKQQVCLGYSNY”, which “soluble on expression in E. coli” value is on record?
A: not soluble

Q: Which “soluble on expression in E. coli” value does the source give for “MGSDKIHHHHHHMANIYPKRAIYCACAKTRKQRRSSYMSNERYNLRGVSASKEDVHAAIKNVDKGIFPQAFCKIIPDILGGDPDYCNIMHADGAGTKSSLAYVYWRETGDLSVWKGIAQDALIMNIDDLLCVGAVDNILVSSTIGRNKRLIPGEVVSAIINGTEELLADLRRMGVNAYATGGETADVGDLVRTIIVDSTVTCRMKRSDVIDNARIKAGDVIVGLASFGQASYEEQYNGGMGSNGLTSARHDVFAHYLAEKYPESFDPSVPDDLVYSGSMKLTDAIAGLGLDAGKLVLSPTRTYAPVVKAILDEMSRRIHGMVHCSGGAQTKVMHFVKNKRVVKDNFFPTPPLFELIQRESLTEWSEMYKVFNMGHRLEVYLSEENASHVIEISESFGIPARIVGRVEEAPTNELILQTPYGEIRY” here?
A: not soluble

Q: Which “soluble on expression in E. coli” value does the source give for “MPAIVCQSALEAVSLIRSGETLWTHSMGATPKVLLDALAKHALTLDNITLLQLHTEGAESLSHPSLLGHLRHRCFFGGVPTRPLLQSGDADYVPIFLSEVPKLFRSGEQKIDTAIIQVSPPDKHGMCSLGISVEATLAACQVAGKIIAHINPQMPRTHGDGFIHIDRFAAVYEQSASLPIHSFATGDAVSLAIGQHVAELVRDGDCLQMGIGAIPDAVLSCLTGHKDLGVHTELFSDGILQLVEKGVINNTKKRFYPGKLVTGFALGSQKLYDYVDDNPAVIFMDIEQVNDTSIIRKNPNVMAINSALQVDLTGQVCADSIGTKIYSGVGGQMDFIRGAGLSEGGRSVIALPSTAAGGRISRIASVLSPGAGVVTTRAHVHYIVTEYGAANLKGRSLRERAQALINIAHPDFREQLSRDAFEVWGLNLLEHHHHHH” here?
A: soluble

Q: With “MSTATKVGAVIITMGNRPDELRALLDSVAKQDGDRVEVVVVGNGSPVPDVPAGVRTVELPENLGIPGGRNVGIEAFGPGGTDVDILLFLDDDGLLAHHDTAELCRQAFTADPELGIISFRIADPDTGETQRRHVPRLRASDPMRSSRVTTFLGGANAVRTKVLAEVGGLPDEFFYAHEETDLAWRALDAGWMIDYRSDMVLYHPTTAPSRHAVYHRMVARNRVWLARRNLPAPLVPVYLGVWLLLTLARRPSGPALKAWFGGFKEGWTSPCGPRRPMKWRTVWRLTRLGRPPVILEHHHHHH” as the sequence, how does the “soluble on expression in E. coli” value read?
A: not soluble

Q: For “MLVPRGSMAPIGSVVIVGRIILSGRGGPITAYSQQTRGLLGCIITSLTGRDKNQVEGEVQVVSTATQSFLATCVNGACWTVFHGAGSKTLAGPKGPITQMYTNVDQDLVGWPAPPGARSLTPCTCGSSDLYLVTRHADVIPVRRRGDTRGSLLSPRPISYLKGSSGGPLLCPSGHVVGIFRAAVCTRGVAKAVDFIPVESMETTMR”, which “soluble on expression in E. coli” value is on record?
A: soluble

Q: With “MIDMTMKVGFIGLGIMGKPMSKNLLKAGYSLVVADRNPEAIADVIAAGAETASTAKAIAEQCDVIITMLPNSPHVKEVALGENGIIEGAKPGTVLIDMSSIAPLASREISEALKAKGIDMLDAPVSGGEPKAIDGTLSVMVGGDKAIFDKYYDLMKAMAGSVVHTGEIGAGNVTKLANQVIVALNIAAMSEALTLATKAGVNPDLVYQAIRGGLAGSTVLDAKAPMVMDRNFKPGFRIDLHIKDLANALDTSHGVGAQLPLTAAVMEMMQALRADGLGTADHSALACYYEKLAKVEVTR” as the sequence, how does the “soluble on expression in E. coli” value read?
A: not soluble

Q: With “MDTYKLILNGKTLKGETTTEAVDAATAEKVFKHYANEHGVHGHWTYDPETKTFTVTE” as the sequence, how does the “soluble on expression in E. coli” value read?
A: soluble

Q: With “MASYKQNLPPSALIKQQVNVADKKSKAEVQRDRQLEEDRKAGTAPAMVDVQTGRDINPHIPMFISQNPWYVPSEGPTLKHQRPHEEREKKMTQIHEWYQKGTTGKSATKFRKGACENCGAMGHQKRDCFDRPRKSNAKETNDNIAEDDYVQPNLTLGFDAKRDRWNGYDPSTHKQVIEDYEHLEEARKVVREHEMKEGEVEPATTEDGAPKDEDMYAEDADMAGVSVDMDSRTRITVRNLRIREDTAKYLYNLAENSPYYDPKSRSMRENPFAGVAGKELEAARFSGDNFVRYSGEVTAANEAQVFAWQATRGGVYAHSIAEPTKLEALKKEYEKEKSTLKNETQKELLDKYGGGEHMERPADELLLAQTESYIEYNRKGKVIKGKEKVAISSRFKEDIYPQNHTSVFGSFWREGRWGYKCCHQFVKNSYCTGKQGIEAETSAAKGTTTSNEEIFKVPKLVEKTEVKEEKEKEDSIKDEVAEENSDNDNDEEKEKVSEKSISPSPPSDDEEKEKEREKERLIEKERRERDQRRRDKKREKRERKKAKLGKRKRRHRDSDDESDPSSGSGSESDSDEEMRKAMKKAKREKAEGMKAAREGDRGRKYNTDYSNTAPNEKEMEAYRVTSVHSADPMAAYMNSKFEKKHTK” as the sequence, how does the “soluble on expression in E. coli” value read?
A: not soluble

Q: For “MKIFVVGAHGQIGQLLVHRLLDRGDTVTGGYRDPIAQTPDPEKNFRAVELDLSWPVDRLADLYAGHDAIVFAAGSRGQDLLGVDLDGAVKTMKAAERADISRFIMLSALDAEDPDKWPDQLHDYYIVKYYADEWLIHNTDLDYVIVQPTALTNDPAQGSITLQPQRPSSIPRADVADVLVAALDSNRHRDTVKIASGNEAIVKALHVLEHHHHHH”, which “soluble on expression in E. coli” value is on record?
A: not soluble

Q: Which “soluble on expression in E. coli” value does the source give for “MGSDKIHHHHHHMFWFKNVMIYRLTNALQLASNELEPLLQQHRFIGCSQSEMSKFGWTAPLAKTEQLHFCHTKQFLLISHKEDKLLPANVIKAETEERIALLEEKENRKLKKTEKQAIKDDVIAMLLPRAFSKHQFTAIWLDLDAQLVYVDAASSKRAEASLALLRKTLGSLPVVPLSFVQLPAEVMTNWLAKGHTPNWLTLLEEAELKSFETESVIRCKKQELESDEICYHLQAGKLVTKLAIEWENHFSCVLNNDATLTRLKFAGEIIEKNDDILKEDIAQRLDADFLLMTEELRLFTQKLIEEFGGIKE” here?
A: not soluble

Q: For “MSLDQVDKALTPKEKAETGVPFYASNQAGIITAQQTYCYIASFDIQTESRQILQDLFVKWTKFADLTTSGGVLRDVDNDMLPPNDTGEADGLGISNFTVTLGYGPTFFEKDGKDRFGVKAKKPKYLEKIPHMAHDSLDEAYSDGDLCIQVCADDQQVAFHGIRNFIRLASGVAVVRWIEEGFLSAPKNETPRNLFGFKDGTANVDHDSNKGYKDVVWAEKDEPEWMRNGSYLGYRKIQMLIEIWDRSSLLDQEDTFGRKKASGAPYHKKHEHDKVDPSKLPADSHVRLAKDTKQQMHRRAYSYTNGIDKSTGTIDAGLLFICFTQNPAKQFLPMLSIMGKMDKLNEYTVPIGSAMFACQGGLAPGEIFGEKLLEGHHHHHH”, which “soluble on expression in E. coli” value is on record?
A: soluble

Q: For “MAEDSNSSESIIVNVTGDDNKSALFGKYDLGKLLGSGAFAKVYQAEDLQNGGESVAIKVVQKKRLKDGLTAHVKREISVMRRLRHPHIVLLSEVLATKTKIYFVMELAKGGELFSRVTSNRFTESLSRKYFRQLISAVRYCHARGVFHRDLKPENLLLDENRDLKVSDFGLSAMKEQIHPDGMLHTLCGTPAYVAPELLLKKGYDGSKADIWSCGVVLFLLNAGYLPFRDPNIMGLYRKIHKAQYKLPDWTSSDLRKLLRRLLEPNPELRITVEEILKDPWFNHGVDPSEIIGIQADDYDLEENGKILNAFDLISSASSSNLSGLFGNFVTPDHCDQFVSDESTAVIMRKVEEVAKQLNLRIAKKKERAIKLEGPHGVANVVVKVRRLTNELVMVEMKNKQRDVGLVWADALRQKLRRLINQPVYKVPDKP”, which “soluble on expression in E. coli” value is on record?
A: not soluble

Q: Which “soluble on expression in E. coli” value does the source give for “SRVFLDHNALPDTLKVTYDSFCSNGVTHRNQPRGDCDGVQINVPITFQVKVTATECIQEQSFVIRALGFTDIVTVQVLPQCECRCRDQSRDRSLCHGKGFLECGICRCDTGYIGKNCEHH” here?
A: soluble

Q: For “MRGSHHHHHHTDPALRAIKVYGVPGWGSTISELMLTLADIPYQFVDVSGFDHEGASRELLKTLNPLCQVPTLALENDEIMTETAAIALMVLDRRPDLAPPVGRAERQLFQRLLVWLVANVYPTFTFADYPERWAPDAPEQLKKNVIEYRKSLYIWLNSQLTAEPYAFGEQLTLVDCYLCTMRTWGPGHEWFQDNATNISAIADAVCQLPKLQEVLKRNEIIGLCGR”, which “soluble on expression in E. coli” value is on record?
A: soluble

Q: With “MGKTSRDKRDIYYRLAKENKWRARSAFKLMQIDDEFQILKGVRRAVDLCAAPGSWSQVLSKRLYEEDQEAKIVAIDLQPMAPIPGVIQLQGDITSVDTANQVIKHFSGEKSDIVICDGAPDVTGIHSLDEFMQAELILAAFNITSHVLKEGGNFLAKIFRSRNSSLLYAQMKKYFKKVYLAKPRSSRQSSCEAFVLCLDYSPPEGFVPTMGKTSLDATDASAISPDIIDGFVTCGDLSGWDSEKSYPLDIDACFPKGEIDEEQKKRYEFKDVVQPPTDPAYKAALDKKKSGVFAKMSADLNRQLKAELSRGKDQKKTPAENVPSVEELEKAAEKFQL” as the sequence, how does the “soluble on expression in E. coli” value read?
A: not soluble

Q: Which “soluble on expression in E. coli” value does the source give for “MLWTDCLTRLRQELSDNVFAMWIRPLVAEETTDSLRLYAPNPYWTRYIQEHHLELISILVEQLSEGRIRQVEILVDSRPGAILSPAEQPATTTAALSSTPVVPQRVKKEVVEPAATQSNKILNSKKRLLNPLFTFSLFVEGRSNQMAAETCRKVLTQLGASQHNPLFLYGPTGLGKTHLMQAVGNALLQAKPNARVMYMTAESFVQDFVSSLQKGKVEEFKKNCRSLDLLLVDDIHLLAGKEASLVEFFYTFNALLDESKQIILTSDRYPKELTELDPRLVSRFSWGLSVGVEPPDIETRIEILLKKAENSGVDLPRNCALFIAQQVVANVRELEGALNKVVAIARFKGSQIDLDVVRESLKDVLAIRARTISVENIQRVVSEYFRIPLKELIGPKRTRIYARPRQLAMGLARELTGDSFPEIGMAFGGRDHSTVMHACEKVQSLKQEDPIFNEDYKNLLRLLQSLEHHHHHH” here?
A: not soluble

Q: Which “soluble on expression in E. coli” value does the source give for “MFKLFTARQHDKIWDFDGGIHPPEMKLQSSTVPMRIAPLPDQLIIPLQQHLGPEGELRVRAGEQVLKGQPLTVGRGRTVPVHAPTSGMITAIAPHTTAHPSGLAELCVHITPDGEDRWREQQPWADYRQRDKMALLDRIHQAGIAGLGGAGFPTASKLQGGLNGIITLIINAAECEPYITADDRLMQEHADEVITGIHILRHLLQPQQVLIGIEDNKPEAIAALQRALRGQDDIHLRVVPTKYPSGGAKQLTKILTGKEVPFGKHSSSIGVLMQNVGTVVAIKRAVIDDEPLIERVVTLTGDALSSPGNFWARIGTPVLYLLKLAGFKPQNPPMVIMGGPLMGFTLPSLDVPIVKISNCILAPAETEMGLSEPEQSCIRCGLCVDACPAGLLPQQLYWFSRGEEHEKARNHNLFDCIECGACAYVCPSNIPLVQYYRQEKAEIRALDQESARAAEAKARFEAKQARLAREKLARELRHKQAAVKLTDADQQTVDAAVSRLTRQSDGSESVINIPAGQMPDNSAVIAAREARKAQARARQAEKQQARSTEETTDVVDPRQAAVAAAIARVKAKKAVQAQHVTTDVAEAGSEAMAEDPRKAAVAAAIARVKAKKAAQAINPD” here?
A: not soluble

Q: For “MTNYKIDFSKGLVPAILQDNQTKQVLMLGYMNQEAFDKTIEDGVVCFYSRSKQRLWTKGETSGHTQRVKDIHVDCDNDTILIDVIPNGPTCHTGSQSCFNTEVPFSVQTLAQTVQDSAQSNNEKSYTKYLLTEGIEKITKKYGEEAFEVVIEAIKGDKKAFVSEVADELYHLFVLMHALGVDFSEIEAELARRHHKRNNFKGERQNIEQWLEHHHHHH”, which “soluble on expression in E. coli” value is on record?
A: not soluble
